This note sets out measurements from patent US20070087448.

Numbering of substitutions follows the chain as printed.

The target of data set [1] is plasma peptide at m/z=5082±4.
The target in data set [2] is T1, human apolipoprotein C1, common form (m/z=6631).
T1 chain: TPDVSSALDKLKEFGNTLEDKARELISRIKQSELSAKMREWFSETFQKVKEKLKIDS

Data set [3] addresses T2, T45S variant of human apolipoprotein C1 (low mass variant, m/z=6617/6618).
T2 chain: T1 chain with T45S

B1: hog kidney dipeptidyl peptidase IV (DPPase IV), purchased from the Sigma Chemical Company (protein)
chain: DSRRTYTLTDYLKSTFRVKFYTLQWISDHEYLYKQENNILLFNAEYGNSSIFLENSTFDELGYSTNDYSVSPDRQFILFEYNYVKQWRHSYTASYDIYDLNKRQLITEERIPNNTQWITWSPVGHKLAYVWNNDIYVKNEPNLSSQRITWTGKENVIYNGVTDWVYEEEVFSAYSALWWSPNGTFLAYAQFNDTEVPLIEYSFYSDESLQYPKTVRIPYPKAGAENPTVKFFVVDTRTLSPNASVTSYQIVPPASVLIGDHYLCGVTWVTEERISLQWIRRAQNYSIIDICDYDESTGRWISSVARQHIEISTTGWVGRFRPAEPHFTSDGNSFYKIISNEEGYKHICHFQTDKSNCTFITKGAWEVIGIEALTSDYLYYISNEHKGMPGGRNLYRIQLNDYTKVTCLSCELNPERCQYYSASFSNKAKYYQLRCFGPGLPLYTLHSSSSDKELRVLEDNSALDKMLQDVQMPSKKLDVINLHGTKFWYQMILPPHFDKSKKYPLLIEVYAGPCSQKVDTVFRLSWATYLASTENIIVASFDGRGSGYQGDKIMHAINRRLGTFEVEDQIEATRQFSKMGFVDDKRIAIWGWSYGGYVTSMVLGAGSGVFKCGIAVAPVSKWEYYDSVYTERYMGLPTPEDNLDYYRNSTVMSRAENFKQVEYLLIHGTADDNVHFQQSAQLSKALVDAGVDFQTMWYTDEDHGIASNMAHQHIYTHMSHFLKQCFSLP
As to B1, in data set [1], the “MALDI-TOF profile after 2 hours of digestion of diluted plasma with 1 unit of enzyme” value is listed as “The 5082 peak had been completely digested to the 4885 peak”. Moreover, in data set [2], the “MALDI-TOF profile after incubation of human plasma with the enzyme (conversion of the 6631 peak to the 6433 peak)” value is given as “The enzyme converted all of the material in the peak at 6631 to material in the 6433 peak” and the “rate of enzyme cleavage (m/z=6631 conversion to m/z=6433), reference for the T45S variant” value is given as “degradation of the more common form of apolipoprotein C1 (m/z=6631 conversion to m/z=6433)”. Also, the “rate of enzyme cleavage (m/z=6618 conversion to m/z=6420) relative to the common form of apolipoprotein C1” value in data set [3] is given as 3.1 times the rate of degradation of the more common form of apolipoprotein C1.
